Measurements published in paper PMC4826271, “New Structural Insights into the Genome and Minor Capsid Proteins of BK Polyomavirus using Cryo-Electron Microscopy” (Structure(London, England:1993), 2016).

B1: BK polyomavirus minor capsid protein VP2 (natural protein)
chain: MGAALALLGDLVASVSEAAAATGFSVAEIAAGEAAAAIEVQIASLATVEGITSTSEAIAAIGLTPQTYAVIAGAPGAIAGFAALIQTVSGISSLAQVGYRFFSDWDHKVSTVGLYQQSGMALELFNPDEYYDILFPGVNTFVNNIQYLDPRHWGPSLFATISQALWHVIRDDIPSITSQELQRRTERFFRDSLARFLEETTWTIVNAPINFYNYIQQYYSDLSPIRPSMVRQVAEREGTRVHFGHTYSIDDADSIEEVTQRMDLRNQQSVHSGEFIEKTIAPGGANQRTAPQWMLPLLLGLYGTVTPALEAYEDGPNQKKRRVSRGSSQKAKGTRASAKTTNKRRSRSSRS
notes: Minor capsid protein VP2 of BK polyomavirus, Dunlop strain; printed mass 38.3 kDa; same open reading frame as VP3, with an extended N terminus; The introduction says the extended N terminus of VP2 holds a site for myristoylation; also called VP2/3; VP2/VP3; source: Vero cells transfected/infected with the BK Dunlop genome; in purified virions (CsCl gradient, 1-MDa centrifugal concentrator)
B2: BK polyomavirus major capsid protein VP1 (native infectious virion, Dunlop strain) (natural protein)
chain: MAPTKRKGECPGAAPKKPKEPVQVPKLLIKGGVEVLEVKTGVDAITEVECFLNPEMGDPDENLRGFSLKLSAENDFSSDSPERKMLPCYSTARIPLPNLNEDLTCGNLLMWEAVTVQTEVIGITSMLNLHAGSQKVHEHGGGKPIQGSNFHFFAVGGEPLEMQGVLMNYRSKYPDGTITPKNPTAQSQVMNTDHKAYLDKNNAYPVECWVPDPSRNENARYFGTFTGGENVPPVLHVTNTATTVLLDEQGVGPLCKADSLYVSAADICGLFTNSSGTQQWRGLARYFKIRLRKRSVKNPYPISFLLSDLINRRTQRVDGQPMYGMESQVEEVRVFDGTERLPGDPDMIRYIDKQGQLQTKML
notes: Major capsid protein VP1 of BK polyomavirus, Dunlop strain, as assembled in the native virion; Five copies form one penton; 72 pentons form the T = 7d capsid, with VP1 in six quasi-equivalent conformations; PDB 5FUA is a homology model of BK VP1 (built on SV40, PDB 1SVA) fitted into the virion map; also called BK VP1; BKPyV VP1; source: Vero cells transfected/infected with the BK Dunlop genome; …
B3: BK polyomavirus minor capsid protein VP3 (natural protein)
chain: MALELFNPDEYYDILFPGVNTFVNNIQYLDPRHWGPSLFATISQALWHVIRDDIPSITSQELQRRTERFFRDSLARFLEETTWTIVNAPINFYNYIQQYYSDLSPIRPSMVRQVAEREGTRVHFGHTYSIDDADSIEEVTQRMDLRNQQSVHSGEFIEKTIAPGGANQRTAPQWMLPLLLGLYGTVTPALEAYEDGPNQKKRRVSRGSSQKAKGTRASAKTTNKRRSRSSRS
notes: Minor capsid protein VP3 of BK polyomavirus, Dunlop strain; printed mass 26.7 kDa; expressed from the same open reading frame as VP2 but without VP2's extended N terminus; also called VP2/3; VP2/VP3; source: Vero cells transfected/infected with the BK Dunlop genome; in purified virions (CsCl gradient, 1-MDa centrifugal concentrator)

Key:
[1] = target: BK polyomavirus major capsid protein VP1 (VP1-only virus-like particle) (BK polyomavirus) (UniProt P03088); assay: cryo-EM structure; purified VP1-only VLPs in buffer A supplemented with 50 mM CaCl2, vitrified; FEI Polara, K2 summit in super-resolution mode; icosahedral single-particle reconstruction in RELION, 9.1 Å
[2] = target: B2; assay: cryo-EM structure; purified native BK virions in buffer A (10 mM HEPES pH 7.9, 1 mM CaCl2, 1 mM MgCl2, 5 mM KCl), vitrified; FEI Tecnai-F20, 200 kV, K2-Summit; icosahedral single-particle reconstruction in RELION, 7.6 Å; conditions: both partners purified
[3] = target: the molecule itself; assay: as above

Molecule | binding result [2] | other results
BK polyomavirus major capsid protein VP1 (VP1-only virus-like particle) (from UniProt P03088 1-362) (natural protein) |  | stoichiometry N [1]: 5
B1 | binds | 
B2 |  | stoichiometry N [3]: 5
B3 | binds | 
